In PMC12285236, “Xylanolytic metabolism is regulated by coordination of transcription factors XynR and XylR in extremely thermophilic Caldicellulosiruptorales”:

T1: XylR (Anaerocellum (f. Caldicellulosiruptor) …, UniProt Q44406 1-399)
T1 sequence: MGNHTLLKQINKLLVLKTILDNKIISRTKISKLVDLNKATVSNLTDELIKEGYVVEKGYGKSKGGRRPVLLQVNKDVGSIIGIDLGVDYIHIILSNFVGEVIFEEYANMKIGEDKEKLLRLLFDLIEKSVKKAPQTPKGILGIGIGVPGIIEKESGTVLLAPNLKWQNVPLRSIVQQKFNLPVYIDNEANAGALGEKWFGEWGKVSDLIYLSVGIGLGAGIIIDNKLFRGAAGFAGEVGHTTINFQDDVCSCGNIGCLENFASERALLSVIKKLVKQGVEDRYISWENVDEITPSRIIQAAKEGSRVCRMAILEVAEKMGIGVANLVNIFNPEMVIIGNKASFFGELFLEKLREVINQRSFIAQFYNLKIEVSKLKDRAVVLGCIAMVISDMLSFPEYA


Tests used:
[1] = molecular target: XynR (Anaerocellum (f. Caldicellulosiruptor) bescii) (UniProt B9MPD1); assay: fluorescence polarization; conditions: 20 mM Tris-HCl, 100 mM NaCl, 0.02% Tween 20, pH 7.4; FP: 5 nM probe, 30 nM-3 uM protein, 22 C; BLI: 100 nM DNA immobilized on streptavidin sensors
XylR [2] = molecular target: T1, XylR; assay: BLI; 20 mM Tris-HCl, 100 mM NaCl, 0.02% Tween 20, pH 7.4; FP: 5 nM probe, 30 nM-3 uM protein, 22 C; BLI: 100 nM DNA immobilized on streptavidin sensors; conditions: protein: recombinant; tags: C-terminal 6xHis; chain copies: 2; label: 5' biotin on strand 1; blunt
XylR [3] = molecular target: T1, XylR; assay: fluorescence polarization; Hill coefficient <1; 20 mM Tris-HCl, 100 mM NaCl, 0.02% Tween 20, pH 7.4; FP: 5 nM probe, 30 nM-3 uM protein, 22 C; BLI: 100 nM DNA immobilized on streptavidin sensors; conditions: protein: recombinant; tags: C-terminal 6xHis; chain copies: 2; label: 5' 6-FAM on strand 1; blunt

Molecule | Kd [1] [nM] | also measured
ATTGACTAGTAAACGCTTACGATATATT (double strand) [XDL FP probe] | 161 | 
ATTTTCATGAAATCGCTTTCCTATCTAA / TTAGATAGGAAAGCGATTTCATGAAAATA [xynMNC FP probe] | 150 | 
TAATAATCGAAATCGCTTACAATTCCTG (double strand) [xynR-xylB FP probe] | 172 | 
TGAGGTTAGAAAGCGGTTTCAAGCAATT (double strand) [xyl3A FP probe] | 169 | 
xylA BLI probe (dsDNA) DNA 1: ATTATAGATATTAGTTTGTTTAATAAACAAACTAAGTACACGTACT DNA 2: AGTACGTGTACTTAGTTTGTTTATTAAACAAACTAATATCTATAAT |  | binding result (XylR [2]): binds
xynUVW FP probe (dsDNA) DNA 1: TAAATATATAAATAGTTTGTTTAAGAAATAAACCAAAAGGAGTGATT DNA 2: AATCACTCCTTTTGGTTTATTTCTTAAACAAACTATTTATATATTTA |  | Kd (XylR [3]): 165 nM
